B1: MYBL2 (parent)
chain: FSPSQFLNFWNKQDTLELESPSLT

Variants of: B1
Assay: protein stability index of a GFP-peptide fusion (GPS, HEK-293T) (PSI 1-6); higher = more stable
Settings: c terminus: a fixed tail appended
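Note: lentivirally expressed fusions sorted by FACS into six bins by GFP to DsRed ratio, PSI derived from sequencing read proportions per bin multiplied by bin number.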

Protein stability index: each site, then its substitutions
L7: H 3.34, T 3.42, W 2.38, K 2.97, V 3.57, M 3.04, G 2.59, P 2.25, R 2.38, Y 2.76, N 3.1, Q 2.92, I 3.39
Q13: Y 3.56, M 3.43, W 3.25, F 2.17, A 3.54, P 2.06, T 2.4, R 1.21, S 3.98, N 3.24, H 3.41, D 3.51, V 2.94, I 4.44
N11: D 3.14, P 2.51, E 2.73, Y 3.26, I 2.5, R 2.48, A 1.4, G 2.56, S 2.99, F 2.14, L 3.89, T 2.79, Q 2.77, C 4.67
F9: K 2.44, R 2.13, L 2.98, C 2.17, M 1.63, Y 1.74, D 2.98, A 1.87, T 1.96, N 2.29, W 2.84, G 1.6, P 2.48, E 2.43, S 1.83, V 3.09, H 2.43, I 3.65, Q 2.15
W10: N 3.38, H 2.77, C 2.5, V 1.89, K 2.8, S 2.91, E 3.51, P 3.45, Q 3.5, I 2.28, T 2.98, M 2.17, Y 2.63, F 2.18, R 2.62, G 2.93, D 3.87, L 2.06, A 2.48
T24: L 2.52, M 2.65, W 2.86, N 2.1, C 3.38, Y 2.73, I 2.2, A 3.17, S 2.36, E 2.34, K 3.62, P 3.08, R 3.41
S22: N 3.17, H 2.56, W 3, F 3.27, T 2.82, Y 2.61, C 4.69, I 2.72, K 3.1, P 1.89, V 2.95
T15: S 4.29, W 3.33, N 3, A 3.05, P 2.48, M 3.12, I 2.92, H 3.8, R 2.54, D 2.09, Y 1.38, G 3.51, C 2.54, Q 1.82, E 2.4, K 2.68, L 3.22, F 2.34
E19: Y 2.11, W 2.64, R 2.75, L 4.26, P 2.86, S 2.07, A 2.63, V 2.8, D 3.09, N 3.12, C 3.63, T 2.39, G 1.66, H 2.88, I 2.94, F 2.58
N8: Y 2.06, M 3.6, T 3.92, P 2.91, K 2.74, F 4.01, S 3.58, W 2.9, Q 2.17, D 2.08, V 3.44, A 3.07, L 3.22, I 4.12, R 2.93
S20: F 2.57, R 2.26, P 1.65, V 2.31, L 1.89, Q 3.9, G 2.84, M 3.66, E 1.23, K 2.35, I 2.75, W 2.37, T 2.83, C 2.08, D 2.62

— the supplement of paper PMC10567573
